This sample holds only a part of the variants without activity.
B1: TPR 5TU (parent)
chain: GGAUCUUCUCGAUCUAACAAAAAAGACAAAUCUGCCACAAAGCUUGAGAGCAUCUUCGGAUGCAGAGGCGGCAGCCUUCGGUGGCGCGAUAGCGCCAACGUUCUCAACUAUGACACGCAAAACGCGUGCUCCGUUGAAUGGAGUUUAUCAUG

Variants of: B1
Experiment: polymerase ribozyme fitness, log enrichment relative to wild type (log ratio); higher = more active; in vitro selection for triplet polymerase activity
Summary of the method: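 Mutant libraries for each subunit of a heterodimeric triplet polymerase ribozyme were made by PCR and then transcribed. Each library underwent one round of in vitro selection in triplicate: annealing with a biotinylated primer, the partner subunit and triplets, frozen incubation at −7 °C, gel excision of extended constructs, streptavidin-bead capture and RT-PCR. Input and output libraries were Illumina-sequenced, and only genotypes with ≥10 input reads and ≥1 read per output were kept. Fitness is the logarithm, base 2, of genotype enrichment over wild-type enrichment, computed from inverse-variance-weighted replicate averages.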

Compared with GGAUCUUCUCGAUCUAACAAAAAAGACAAAUCUGCCACAAAGCUUGAGGACAACUUCGGAUGCAGAGGCGGCAGCCGUUGGUGGCGCGAUAUCGCCAACGUUCUCAACGAUGACACGCAAAUCGCGUGCUCCGCCGAAUGGAGUUUAUAUUG [A49G G50A U53A U77G C79U G92U U109G A122U U134C U135C C149A A150U], GGAUCUUCUCGAUCUAACAAAAAAGACAAAUCUGCCACAAAGCUUGAGGGCAUAUUCGGAUGCAGAGGCGGCAGCCUUCGGUGGCGCGAUAGCGCCAACGUUCUCAACUAUGACACGAAAAACGCGUGCUCCGUUGAAUGGAGUUUAUCAUG [A49G C54A C118A] is higher in “polymerase ribozyme fitness (log ratio)” value: ≤ -4.2 for the first, -3.25 for the second.

Going from GGAUCUUCUCGAUCUAACAAAAAAGACAAAUCUGCCACAAAGCUUGAGGGCAUCUUCGGAUGCAGAGGCGGCAGCCUUCGGUGGCGCGAUAGGGCCAACGUGCUCGACUAUGACACGCAAAACGCGUGCUCCGUUGAAUGGAGUUUAUCAUG [A49G C93G U102G A106G] to GGAUCUUCUCGAUCUAACAAAAAAGACAAAUCUGCCACAAAGCUUGAGGGCAUCUUCGGAUGCAGAGGCGGCAGCCUUCGGUGGCGCGAUAGCGCUAACGUUCUCAACUAUGACACGCAAAACGCGUGCUCCGUUGAAUGGAGUUUAUCAUG [A49G C96U], the “polymerase ribozyme fitness (log ratio)” value rises from ≤ -4.2 to -0.233.

Going from GGAUCUUCUCGAUCUAACAAAAAAGACAAAUCUGCCACAAAGCUUGAGGGCAUCUUCGGAUGCAGAGGCGGCAGCCUUCGGUGGCGCGAUAGCGCGAACGUUCUCAACUAUGACACGCAAAACGCGUGCUCCGUUGAAUGGAGUUUAUCAUG [A49G C96G] to GGAUCUUCUCGAUCUAACAAAAAAGACAAAUCUGCCACAAAGCUUGAGGGCAUCUUCGGAUGCAGAGGCAGCAGCCUUCGGUGGCGCGAUAGCGCCAACGUUCUCAACUAUGACACGCAAAACGCGUGCUCCGUUGAAUUGAGUUUAUCAUG [A49G G70A G140U], the “polymerase ribozyme fitness (log ratio)” value falls from -1.61 to ≤ -4.2.

Compared with GGAUCUUCUCGAUCUAACAAAAAAGACAAAUCUGCCACAAAGCUUGAGGGCAUCUUCGGAUGCAGAGGCGGCAGUCUUCGGUGGCGCGAUAGCGCGAACGUUCUCAACUAUGACACGCAAAACGCGUGCUCCGUUGAAUGGAGUUUAUCAUG [A49G C75U C96G], GGAUCUUCUCGAUCUAACAAAAAAGACAAAUCUGCCACAAAGCUUGAGGUUAUCUUCGGAUGCAGAGGCGGCAGCCUUCGGUGGCGCGAUAGCGCUACCGUUCUCAACUAUGACACGCAAAACGCAUGCUCCGGUGAAUGGAGUUAAUCAUG [A49G G50U C51U C96U A98C G126A U134G U146A] is lower in “polymerase ribozyme fitness (log ratio)” value: -2.68 for the first, -3.95 for the second.

Going from GGAUCUUCUCGAUCUAACAAAAAAGACAAAUCUGCCACAAAGCUUGAGGGCAUCUUCGGAUGCAGAGGCGGCAGCCUUCGGUGGGGCGAUAGUGCCAACGUUCUCAACUAUGACACGCAAAACGCGUGCUCCGUUGAAUGGAGUUUAUCAUG [A49G C85G C93U] to GGAUCUUCUCGAUCUAACAAAAAAGACAAAUCUGCCACAAAGCUUGAGGGCAUCUUCGGAUGCAGAGGCGGCAGCCUUCGGUGGCGCGAUAGCGCCAACGUUCUCAACUAUGACACGCAAAACGCGUGCUCCGUUGAAUGGCGUUUAUCAUG [A49G A142C], the “polymerase ribozyme fitness (log ratio)” value rises from ≤ -4.2 to -1.59.

Going from GGAUCUUCUCGAUCUAACAAAAAAGACAAAUCUGCCACAAAGCUUGAGGGCAUCUUCGGAUGCAGAGGCGGCAGCCUUCGGUUGCGCGAUAGCGCCAACGUUCUCAACUAUGACACGCAAAACGCGUGCUCCGUUGAAUGGAGUUUAUCAUG [A49G G83U] to GGAUCUUCUCGAUCUAACAAAAAAGACAAAUCUGCCACAAAGCUUGAGGGCAUCUUCAGAUGCAGAGGCGGCAGCCUUCGGUGGCGCGAUAGCGCCAACGUUCUCAACUAUGACACGCAAAACGCGUGCUCCGUUGAAUGGAGUUUAUCAUG [A49G G58A], the “polymerase ribozyme fitness (log ratio)” value rises from -1.22 to -0.296.

First: GGAUCUUCUCGAUCUAACAAAAAAGACAAAUCUGCCACAAAGCUUGAGGGCAUCUUCGGAUGCAGAGGCGGCAGCCUUCGGUGGCGCGAUAGAGCCAACGUUCUCAACUAUGACACGCAAAACGCGUGCUCCGAUGAAUGGAGUUGAUCAUG [A49G C93A U134A U146G]
Second: GGAUCUUCUCGAUCUAACAAAAAAGACAAAUCUGCCACAAAGCUUGAGGGCAUCUUCGGAUGCAGAGGCGGCAGCCUUCGGUGGCGCGAUAGCGCCAACGUUCUCAACUAUGUCACGCAAAACGCGUGCUCCGUUGAAUGGAGUUUAUCAUG [A49G A113U]
The “polymerase ribozyme fitness (log ratio)” value of the first is lower: ≤ -4.2 for the first, -2.42 for the second.

GGAUCUUCUCGAUCUAACAAAAAAGACAAAUCUGCCACAAAGCUUGAGGGCAUCUUCGGAUGCAGAGGCGGCAGCCUUCGGUGGCGCGAUAGCGCCAACGUUCUUAACUAUGGCCCGCAAAACGCGUGCUCCGUUGAAUGGAGUUUUUCAUG [A49G C105U A113G A115C A147U] and GGAUCUUCUCGAUCUAACAAAAAAGACAAAUCUGCCACAAAGCUUGAGGGCAUCUUCGGAUGCAGAGGCGGCAGGCAUCGGCGGCGCGAUAGGGCCAACGUUCUCAACUAUGACACGCAAAACGUGUGCUCCGCUGAAUGGAGUUCUUCAUG [A49G C75G U77A U82C C93G C125U U134C U146C A147U] cannot be ordered by “polymerase ribozyme fitness (log ratio)” value: ≤ -4.2 for the first, ≤ -4.2 for the second.

GGAUCUUCUCGAUCUAACAAAAAAGACAAAUCUGCCACAAAGCUUGAGGACAUAUUCGGAUGCAGGGGCGGCAGCCUUCGGAGGCGCGAUAGCGCCAACGUUCUCAAUUAUGACACGCAAAACGAGUGCUCCGUUGAAUGGAGUUUAUCAUG [A49G G50A C54A A66G U82A C108U C125A] and GGAUCUUCUCGAUCUAACAAAAAAGACAAAUCUGCCACAAAGCUUGAGGGCAUCUUUGGAUGCAGAGGCGGCAGACUUCGGUGGCGCGAUAGCGCCAACGUUCUCAACUAUGACACGCAAAACGCGUGCUCCGUUGAAUGGAGUUGAUCAUG [A49G C57U C75A U146G] cannot be ordered by “polymerase ribozyme fitness (log ratio)” value: ≤ -4.2 for the first, ≤ -4.2 for the second.

In the case of GGAUCUUCUCGAUCUAACAAAAAAGACAAAUCUGCCACAAAGCUUGAGGGCAUCUUCGGAUGCAGAGGCGGCAGCCUUCGGUGGCGCGAUAGCGCCAACGUUCUCAACUAUGACACGCAAAUCUCGUGCUCCGUUGAAUGGAGUUUAUCAUG [A49G A122U G124U], the “polymerase ribozyme fitness (log ratio)” value is reported as -0.811.

Source: the RNAGym collection of RNA variant scans (doi:10.1073/pnas.2313332121)
